Tests used:
human CD3εδ (human) = human CD3εδ (human) (UniProt P07766); assay: SPR (Biacore T200), binding to CD3εδ against binding to CD3εγ
[1] = molecular target: CD3 on T cells of human peripheral blood mononuclear cells (human) (UniProt P07766); assay: cell-based or functional assay
Chain of CD3 on T cells of human peripheral blood mononuclear cells (human) (P07766 23-207): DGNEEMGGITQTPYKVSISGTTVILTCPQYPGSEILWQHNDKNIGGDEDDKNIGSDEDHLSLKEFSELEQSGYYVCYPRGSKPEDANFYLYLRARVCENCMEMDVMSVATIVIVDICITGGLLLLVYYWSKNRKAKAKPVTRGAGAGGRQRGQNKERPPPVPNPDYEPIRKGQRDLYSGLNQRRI

Chain of human CD3εδ (human) (P07766 23-126, stated change not applied, chain 1 of 2): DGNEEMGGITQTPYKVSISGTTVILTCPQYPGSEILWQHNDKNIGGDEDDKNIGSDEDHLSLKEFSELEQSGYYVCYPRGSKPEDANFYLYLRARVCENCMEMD
Chain of human CD3εδ (human) (P04234 22-105, stated change not applied, chain 2 of 2, further chain): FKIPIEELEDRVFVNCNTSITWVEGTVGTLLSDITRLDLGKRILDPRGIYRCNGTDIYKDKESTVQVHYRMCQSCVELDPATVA

CD3 (UCHT1)-binding monoclonal antibody
ratio of the binding strength to CD3εδ/binding strength to CD3εγ (human CD3εδ (human)): 19.3 fold
Death of cancer cells EC50 (MDA-MB-231 + human PBMC, flow cytometry) [1]: 0.5 pM
Death of cancer cells Emax (%) [1]: 46%
IFNγ release EC50 [1]: 3 pM
IFNγ release Maximum concentration [1]: 16 ng/mL
T cell activation (CD3+ CD8+ CD69+), human PBMC only, flow cytometry [1]: 60%

— patent US20260258128A1
